System: CC(C)(O/N=C(\C(=O)N[C@@H]1C(=O)N2C(C(=O)[O-])=C(C[N+]3(CCNC(=O)c4ccc(O)c(O)c4Cl)CCCC3)CS[C@H]12)c1csc(N)n1)C(=O)O
Experiment: purified protein, by the assay type
Conditions: other: FDC hydrolysis by VIM-2, 30 °C, pH 7.5

With VIM-2 (Escherichia coli) the kcat was 1.1 ± 0.14 s⁻¹.
